The record followed here is publication PMC3324464, “The GPI Anchor Signal Sequence Dictates the Folding and Functionality of the Als5 Adhesin from Candida albicans” (PLoS ONE, 2012).

“Also recorded” adds a separate entry of the source.

One series deals with human collagen type IV. Nature of the series: Adhesion assay to immobilised collagen type IV. It counts as binding. Conditions: 0.09 mg/ml protein, 37°C 1 hour, anti-GST/HRP, TMB OD650nm; mean of 3 independent experiments in duplicates. On the procedure:
Freshly purified GST-Als5 and GST-Als5-SS were checked for their ability to bind to human collagen type IV, following a slightly modified method to that reported. Briefly, a 96-well flat bottom plate was coated with different amounts of collagen type IV and incubated overnight at 4°C. The plate was then washed thrice with PBS and twice with elution buffer. […] The wells were blocked for 1 hour with 5% skimmed milk in PBS and then washed 5 times with wash buffer (1% skimmed milk, 0.025% Tween-20 in PBS). Thereafter, 200 µl/well of primary anti-GST antibody (diluted 1∶1,000) was added. After incubation at 37°C for 1 hour, the wells were washed five times with wash buffer and incubated at 37°C with HRP-conjugated secondary antibody (200 µl/well; diluted 1∶20,000) for 1 hour. The wells were rinsed five times with wash buffer, 100 µl of freshly prepared tetramethylbenzidine solution was added to each well and incubated at 37°C for 1 hour. OD650nm was monitored on a plate reader (Spectramax M2). […]
Figure 3 Adhesion of Als5 to collagen type IV involves recognition of carbohydrate residues on collagen type IV but is not solely determined by it. […] Adhesion of the proteins to collagen type IV was correlated to the absorbance at 650 nm observed by the oxidation of TMB, the substrate of HRP. […] Adherence to collagen type IV was detected as already described. […]

Series [1] in a line: Aggregation by transmission electron microscopy. The format is physicochemical. Conditions: 37 °C. As for the experimental part:
Transmission Electron Microscopy (TEM)
TEM studies were carried out on a JEOL 2100F. The proteins (0.09 mg/ml) were incubated at 37 °C for 2 weeks prior to the measurements. The proteins were spotted on a carbon-coated copper grid and positively stained with 2% uranyl acetate. The sample was then dried and examined by TEM using a 210 kV accelerating voltage.
Figure 5 Transmission electron microscope images showing aggregation by GST-Als5. […] The scale bar in each panel represents 100 nm. Left panel: 10,000X magnification. Right panel: 25,000X magnification.
(A) Prediction of β-aggregation potential for the GPI anchor attachment signal sequence (SS). The prediction of β-aggregation potential for the SS was done using TANGO (residues 1328–1347). Also shown is the propensity for α-helix, β-turn and β-sheet formation in the unfolded polypeptide chain as predicted by TANGO. […] (B). Transmission electron microscope images showing aggregation by SS and SS in the presence of GST-Als5. The samples, SS (40.0 µM), GST-Als5 (0.4 µM) and GST-Als5 (0.4 µM) + SS (40.0 µM) were incubated as 37 °C for two days before TEM images were recorded.

Series [2] in a line: Aggregation/precipitation on concentrating the protein. The format is physicochemical. Conditions: attempts to concentrate protein above ∼0.09 mg/ml. From the text: However, we observed bands of Mr ∼270 kDa, for both GST-Als5 and GST-Als5-SS (Figure 1B). This marked difference between the observed molecular weights in SDS-PAGE and the expected molecular weights has been previously attributed to the high content of hydroxyl amino acids in proteins; both Als5 and Als5-SS are rich in serine and threonine residues.
It must be pointed out that a PreScission^TM protease site exists between the fusion tag and the Als5 proteins in the two constructs. However, our attempts to cleave off the fusion tag with the protease met with poor success. The PreScission^TM protease is also available as a GST-tagged enzyme and it is possible that steric factors precluded the interaction of the protease with the cleavage site in our fusion protein. Additionally, our protein yields to begin with were very low (∼0.09 mg/ml) and this too could have affected the efficiency of the cleavage. […] We used similarly expressed and purified GST as the control for all our experiments. Similar studies with GST-tagged proteins, including conformational studies, have been reported by other groups previously (cf.).

B1: GST-Als5: GST fusion of full length Als5 minus the GPI anchor attachment signal sequence, expressed in E. coli (protein)
chain: ITGIFNSIDSLTWSNAGNYAFKGPGYPTWNAVLGWSLDGTSANPGDTFILNMPCVFKFTASQKSVDLTADGVKYATCQFYSGEEFTTFSSLKCTVNNNLRSSIKALGTVTLPIAFNVGGTGSSVDLEDSKCFTAGTNTVTFNDGSKKLSIAVNFEKSTVDQSGYLTTSRFMPSLNKIATLYVAPQCENGYTSGTMGFSTSYGDVAIDCSNVHIGISKGVNDWNHPVTSESFSYTKSCSSFGISITYQNVPAGYRPFIDAYISPSDNNQYQLSYKNDYTCVDDYWQHAPFTLKWTGYKNSDAGSNGIVIVATTRTVTDSTTAVTTLPFNPSVDKTKTIEILQPIPTTTITTSYVGVTTSYSTKTAPIGETATVIVDVPYHTTTTVTSEWTGTITTTTTRTNPTDSIDTVVVQVPLPNPTTTTTQFWSESFTSTTTITNSLKGTDSVIVREPHNPTVTTTEFWSESYATTETITNGPEGTDSVIVREPHNPTVTTTEFWSESYATTETVTNKPEGTDSVIIKEPHNPTVTTTEFWSESYATTETITTGPLGTDSIVIHDPLEESSSTTAIESSDSNISSSAQESSSSVEQSSSIVGLSSSSDIPLSSDMPSSSSTGLTSSESSTVSSYDSDSSSSSELSTFSSSESYSSSISDTTNFWDSSSSDLESTSITWSSSIDAQSSQSVQSVSNSISTSQETTSSSGEESNTSVTDILVSSDASSILNSDISSYYPSSTISLSDDFPHTIAGEPDSRSSSSIASTVEISSDLVSLTSDPTSSFDSSSSLNSDSSSSPFSDESDISASSSFSTLVAPSFSLSSSSSLSLTYPHYVNSTTYHASESESSSVASPSMASESANDDTHTLSESTDTTSSIGTDSSTVTFCRRDNGDGCIVTGMPSSSIDSEQTSDVTTTSSFVASSTPTSAEQSITDNPNIDSSQTSASSSTKSSVSVSDTVVNSISLSETSTLSSDDSTSSDTSISSTTNSDTGNINAGSSHTSTASIKESSIQKTGVMLSSSYLSTKLSSTSDITTELITTELITTELTTIEDNEPNTFTSTPSSHSEIFSSDNSVLSKQVDRESTIKTSPTTDVTTVSSLSVHSTEASTATLGENSFSNVASTPSNIATSLRSTSSSSNHATESSGTVKSEASAEAIPSPPTSTDNRLSYSTEEAKGITYANSGSTNNLITESQVAAPTDSTSVLIENPVVTSTFDDNSSAAVDQPSKTKSIEESIMNPDSTNETNNGFIATLSQAQVPNSLIHSESISTTMAKTTDASINGDSAASNSQPTTLIQQVATSSYNQPLITTYAGSSS
modifications: left off: GST, N-terminal, kept
Turning to B1, in the series on human collagen type IV, the “adhesion to collagen type IV (in words)” value was “greater adherence to collagen type IV as compared to GST-Als5-SS”. Further, the “aggregation (in words)” value is given as “significantly higher amount of aggregation as compared to either GST-Als5-SS or GST alone; also recorded: showed significant amount of aggregation” in series [1] (2 weeks, 0.4 µM / 0.09 mg/ml (method)) and “aggregates both in the absence as well as in the presence of SS” in series [1] (2 days, SS 40.0 µM, GST-Als5 0.4 µM, alone or together). Further, in series [2], the “aggregation and precipitation on concentrating (in words)” value is “aggregating and precipitating out; also recorded: tended to aggregate and precipitate out of solution”.
